Experimental findings from patent US20250313627A1 (FUSE BIOTHERAPEUTICS, published 2025) are described below.

The target of test [1] is T1, human ROR1 (Receptor Tyrosine Kinase-Like Orphan Receptor 1) on the cell surface (human, UniProt Q01973 30-937).
T1 construct: whole, on cells; engineered into B16-F10 (high density) and LS174T (low density) cells; also called B16-F10-ROR1-H; LS174T-ROR1-L
Briefly: flow cytometry on ROR1+ MDA-MB-231 cells, secondary antibody to the IgG1 Fc; table row 'Binding EC50 (nM)', the graph's axis reads 'Concentration (pM)'. (In general: Flow cytometry measures light scatter and fluorescence of single cells or particles in a stream.)

Test [2] deals with T2, human CD3 on T cells (human, UniProt P07766 23-207; P09693 23-182; P04234 22-171; P20963 22-164).
T2 construct: whole, on cells; also called human CD3 on Jurkat T cells; human CD3 on T cells isolated from human PBMC
Description: flow cytometry on CD3+ Jurkat NFAT Lucia cells, secondary antibody to the IgG1 Fc.

Test [3] has as its target T1, human ROR1 (Receptor Tyrosine …). Briefly: cell-based or functional assay.
In test [4] the target is T3, recombinant His tagged human ROR1 (human, UniProt Q01973 30-403, limits assumed).
T3 construct: Analyte in the BLI assay; also called Human ROR1-His; recombinant ROR1
Briefly: BLI (Octet), VHH-Fc loaded on the biosensor, His tagged ROR1 in solution; column 'kdis(1/s)'. A general note: BLI is a label-free optical method that tracks binding on a fibre tip over time.

Test [5] has as its target T3, recombinant His tagged human ROR1. Briefly: BLI (Octet), VHH-Fc loaded on the biosensor, His tagged ROR1 in solution.
The target in test [6] is T1, human ROR1 (Receptor Tyrosine …). Briefly: flow cytometry, B16-F10 cells expressing human ROR1 (high density). The procedure: (§1) As shown in the tables below, mouse B16-F10 melanoma (Tables 9A-9F) or LS174T human colorectal adenocarcinoma (Tables 9G-9H) cells genetically engineered to express human ROR1 at high and low densities, respectively, were stained for flow cytometric analysis with 100 nM of humanized variants of the ROR1 specific VHHs, 5A1 or 2A11 in either a VHH-Fc format or the Ac13 format shown in FIG. 1. Cells were analyzed on a flow cytometer after the primary test article was fluorescently tagged with a goat anti human IgG-Fc specific PE secondary antibody. The positive control used was PE conjugated anti-human ROR1 clone 2A2. Negative controls included a PE labeled mouse IgG Ab, the secondary antibody only, the combination of a Hen Egg Lysozyme (HEL) specific antibody plus goat anti human IgG-Fc specific PE and Fluorescence Minus One (FMO). Other controls included the non-humanized version of 5A1-Fc (FUSE179), 2A11-Fc (FUSE112) and 5A1-Ac13 (FUSE488). Humanized variants were generated using computational design (FUSE489, FUSE497-498, FUSE563, FUSE569-570, and BI-HU9-VHH11-33), a yeast display library in which mutations were inserted into the Vernier zone residues of human framework indicated in GenBank accession number M99660 (FUSE524-525, FUSE589, FUSE597-598, FUSE537, FUSE661-662, BI-HU9-HK and BI-HU9-HK-1), and a second yeast display library in which mutations were inserted into the Vernier zone residues of human framework indicated in GenBank accession number AWH66715 and amino acid position 103 within CDR3 (FUSE559, FUSE590-596, BI-HU9-VH9-1, FUSE654-655 and FUSE661-662. Affinity matured variants of FUSE559 were also generated using computational design (F22158101-21; Table 9H).

The target is the same in test [7]. The description is as above. The procedure: as §1
The source holds these as a separate data set.

Test [8] has the same target. Description: flow cytometry, LS174T cells expressing human ROR1 (low density). As for the experimental part: as §1
Test [9] has as its target T3, recombinant His tagged human ROR1. Briefly: BLI (Octet), FUSE protein on the tip, His tagged ROR1 in solution; 2A11 parental VHH-Fc. As for the experimental part:
As shown in FIGS. 5A-5D, the binding affinities (KD) of TCEs for ROR1 were assessed. We examined the magnitude by which several TCEs and mutants thereof bind to recombinant ROR1. Kinetic binding graphs were generated via Bio-Layer Interferometry (BLI) using an Octet system. For each TCE, the biosensor tips were coated with FUSE proteins at 15 μg/ml and probed with either recombinant His tagged ROR1 at concentrations ranging from 100 pM to 10 μM. […] The binding affinity (KD), on rate (k-on) and off rate (k-dis), are summarized for ROR1 in FIG. 5D.
We further examined the impact of mutating the cysteine residues located in CDR1 and CDR3 of 2A11 VHH and 5A1 VHH.

The target in test [10] is T1, human ROR1 (Receptor Tyrosine …). Briefly: flow cytometry, B16-F10 cells expressing human ROR1 (high density). The procedure: as §1
The source holds these as a separate data set.

T1 sequence (Q01973 30-937): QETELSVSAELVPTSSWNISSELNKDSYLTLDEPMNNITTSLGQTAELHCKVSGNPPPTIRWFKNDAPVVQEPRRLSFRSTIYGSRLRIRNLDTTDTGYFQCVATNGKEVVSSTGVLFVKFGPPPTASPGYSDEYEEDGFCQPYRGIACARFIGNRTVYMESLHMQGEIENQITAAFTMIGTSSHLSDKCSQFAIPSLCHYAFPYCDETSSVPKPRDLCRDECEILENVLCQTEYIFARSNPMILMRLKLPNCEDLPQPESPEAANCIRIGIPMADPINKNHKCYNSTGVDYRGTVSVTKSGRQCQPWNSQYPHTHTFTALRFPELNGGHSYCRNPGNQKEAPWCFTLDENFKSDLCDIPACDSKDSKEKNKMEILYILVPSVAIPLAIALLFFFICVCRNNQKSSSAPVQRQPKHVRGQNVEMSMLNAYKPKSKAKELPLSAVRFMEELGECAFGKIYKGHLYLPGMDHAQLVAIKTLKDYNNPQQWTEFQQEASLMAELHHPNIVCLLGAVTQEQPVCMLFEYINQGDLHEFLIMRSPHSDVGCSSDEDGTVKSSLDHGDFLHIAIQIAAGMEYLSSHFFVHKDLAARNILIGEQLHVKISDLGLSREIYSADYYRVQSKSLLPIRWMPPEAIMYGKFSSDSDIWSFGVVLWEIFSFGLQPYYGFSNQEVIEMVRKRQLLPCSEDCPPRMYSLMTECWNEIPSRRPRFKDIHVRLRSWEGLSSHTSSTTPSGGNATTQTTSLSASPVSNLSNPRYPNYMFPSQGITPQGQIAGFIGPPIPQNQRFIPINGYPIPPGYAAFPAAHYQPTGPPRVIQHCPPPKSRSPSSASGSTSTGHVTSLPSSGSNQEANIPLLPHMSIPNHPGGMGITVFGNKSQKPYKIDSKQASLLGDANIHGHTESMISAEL
T3 sequence (Q01973 30-403 limits assumed): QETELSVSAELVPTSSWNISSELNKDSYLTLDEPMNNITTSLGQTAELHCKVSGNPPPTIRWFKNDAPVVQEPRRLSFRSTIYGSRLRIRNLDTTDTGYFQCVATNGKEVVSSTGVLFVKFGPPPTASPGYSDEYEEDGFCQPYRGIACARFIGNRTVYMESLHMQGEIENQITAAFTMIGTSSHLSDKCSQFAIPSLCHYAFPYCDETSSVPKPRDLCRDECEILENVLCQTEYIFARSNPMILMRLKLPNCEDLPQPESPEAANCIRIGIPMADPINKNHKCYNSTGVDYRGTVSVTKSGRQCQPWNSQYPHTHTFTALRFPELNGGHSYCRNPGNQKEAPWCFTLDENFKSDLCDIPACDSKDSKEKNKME
T2 sequence (P07766 23-207, chain 1 of 4): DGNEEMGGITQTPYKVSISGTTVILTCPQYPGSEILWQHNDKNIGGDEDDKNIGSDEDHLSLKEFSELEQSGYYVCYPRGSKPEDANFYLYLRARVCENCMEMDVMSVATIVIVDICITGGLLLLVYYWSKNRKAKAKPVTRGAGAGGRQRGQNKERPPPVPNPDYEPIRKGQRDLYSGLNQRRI
T2 sequence (P09693 23-182, chain 2 of 4): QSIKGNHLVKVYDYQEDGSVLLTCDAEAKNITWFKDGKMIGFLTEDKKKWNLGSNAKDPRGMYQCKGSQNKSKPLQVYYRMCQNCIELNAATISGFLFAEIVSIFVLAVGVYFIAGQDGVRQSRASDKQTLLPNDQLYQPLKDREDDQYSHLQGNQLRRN
T2 sequence (P04234 22-171, chain 3 of 4): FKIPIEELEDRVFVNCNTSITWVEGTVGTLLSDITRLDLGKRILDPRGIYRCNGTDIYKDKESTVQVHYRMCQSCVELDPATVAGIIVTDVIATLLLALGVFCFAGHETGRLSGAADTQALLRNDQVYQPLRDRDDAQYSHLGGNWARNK
T2 sequence (P20963 22-164, chain 4 of 4): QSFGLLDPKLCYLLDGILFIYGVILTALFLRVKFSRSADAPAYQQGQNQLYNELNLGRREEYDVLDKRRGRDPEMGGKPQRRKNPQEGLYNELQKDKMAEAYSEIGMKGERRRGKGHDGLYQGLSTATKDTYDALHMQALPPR

B1: FUSE608 (humanized CD3 clone 1F3.3 x humanized clone 5A1-FA9-HK1) (bispecific antibody)
heavy: EVQLVESGGGLVQPGGSLRLSCAASGFTFSTYAMNWVRQAPGKGLEWVARIRSKYNNYATYYADSVKDRFTISRDDSKNTLYLQMNSLRAEDTAVYYCARHGNFGNSYVSWFAYWGQGTMVTVSSASTKGPSVFPLAPSSKSTSGGTAALGCLVKDYFPEPVTVSWNSGALTSGVHTFPAVLQSSGLYSLSSVVTVPSSSLGTQTYICNVNHKPSNTKVDKKVEPKSCDKTHTCPPCPAPEAAGGPSVFLFPPKPKDTLMISRTPEVTCVVVDVSHEDPEVKFNWYVDGVEVHNAKTKPREEQYNSTYRVVSVLTVLHQDWLNGKEYKCKVSNKALPAPIEKTISKAKGQPREPQVYTLPPSREEMTKNQVSLSCAVKGFYPSDIAVEWESNGQPENNYKTTPPVLDSDGSFFLVSKLTVDKSRWQQGNVFSCSVMHEALHNRFTQKSLSLSPGK
VHH-Fc: EVQLLESGGGLVQPGGSLRLSCTASGYTNRLKCMGWFRQAPGKEREEIASISTGTGNTYYADSVKGRFTISRDKSRNTLYLQMNTLRAEDTAVYYCAADVRPHGTTCHYNSRGQGTQVTVSSEPKSSDKTHTCPPCPAPEAAGGPSVFLFPPKPKDTLMISRTPEVTCVVVDVSHEDPEVKFNWYVDGVEVHNAKTKPREEQYNSTYRVVSVLTVLHQDWLNGKEYKCKVSNKALPAPIEKTISKAKGQPREPQVYTLPPSREEMTKNQVSLWCLVKGFYPSDIAVEWESNGQPENNYKTTPPVLDSDGSFFLYSKLTVDKSRWQQGNVFSCSVMHEALHNHYTQKSLSLSPGK
light: QAVVTQEPSLTVSPGGTVTLTCRSSTGAVTTSNYANWVQQKPGQAPRGLIGGTNKRAPGTPARFSGSLLGGKAALTLSGVQPEDEAEYYCALWYSNLWVFGGGTKLTVLGQPKAAPSVTLFPPSSEELQANKATLVCLISDFYPGAVTVAWKADSSPVKAGVETTTPSKQSNNKYAASSYLSLTPEQWKSHRSYSCQVTHEGSTVEKTVAPTECSGGGGSGGGGSGGGGSGGGGSEVQLLESGGGLVQPGGSLRLSCTASGYTNRLKCMGWFRQAPGKEREEIASISTGTGNTYYADSVKGRFTISRDKSRNTLYLQMNTLRAEDTAVYYCAADVRPHGTTCHYNSRGQGTQVTVSS
For orientation: EC50 means the concentration giving half of the maximal effect. High values mean weaker potency, low ones greater potency. For B1, the EC50 is 2.9 nM in [1] and 8.18 nM in [2]. In addition, the “fold decrease in T cell mediated IFNγ release with ROR1+ MDA-MB-231, potency against FUSE399” value in test [3] is approximately 25 fold.

B2: FUSE-112 (2A11 VHH-human-Fc fusion protein) (Fc fusion)
chain: QVQLQESGGGSVPAGGSLRLSCAASGSTYSANCMGWFRQAPGKEREEVASMSIRSGRTYYSDSVKGRFTISQDGSKNTLYLQLNSLKAEDTALYYCAAAYGGSRCVYNYRGQGTQVTVSS
notes: VHH-human-Fc fusion; non-humanized 2A11; also called 2A11-Fc; not shown: human Fc
As a reminder, the koff is the first-order rate constant of dissociation. The term Kd denotes the equilibrium constant for the complex coming apart. By kon is commonly meant a measure of how fast the partners come together. For B2, in test [4], the koff turned out to be 0.00183 s⁻¹. For the same molecule, the Kd is 42.4 nM in [5] and approximately 4 nM in [9]. Besides, in test [5], the kon was 43100 M⁻¹ s⁻¹. Further, the MFI in [6] stood at 11900; in test [7], 7840; in test [8], 4340; in test [10], 208000.
